In patent US20210371529A1:
Like-named read-outs stand apart in the source and are kept apart here.

Tests used:
human LAG-3-His (human) [1] = molecular target: human LAG-3-His (human) (UniProt P18627); test: BLI (ForteBio), antibody on AHQ tip, human LAG-3-His 100 nM in solution
human LAG-3-His (human) [2] = molecular target: human LAG-3-His (human) (UniProt P18627); test: BLI (ForteBio), antibody on AHQ tip, human LAG-3-His 100 nM in solution, univalent
[3] = molecular target: human LAG-3 overexpressed on HEK293 cells (human) (UniProt P18627); test: flow cytometry on 293-hLAG-3 cells, MFI curve
[4] = molecular target: LAG-3 on activated human CD4+ T cells (human) (UniProt P18627); test: flow cytometry on activated human CD4+ T cells, MFI curve
[5] = molecular target: rhLAG3 protein (huFc) (human) (UniProt P18627); test: flow cytometry, blocking of rhLAG3 (huFc) 20 nM binding to HLA-DR on CHO-DR cells
[6] = molecular target: human LAG-3 overexpressed on HEK293 cells (human) (UniProt P18627); test: flow cytometry on 293-hLAG-3 cells, MFI curve; remark: listed apart in the source

human LAG-3-His (human), sequence (P18627 23-450 limits assumed): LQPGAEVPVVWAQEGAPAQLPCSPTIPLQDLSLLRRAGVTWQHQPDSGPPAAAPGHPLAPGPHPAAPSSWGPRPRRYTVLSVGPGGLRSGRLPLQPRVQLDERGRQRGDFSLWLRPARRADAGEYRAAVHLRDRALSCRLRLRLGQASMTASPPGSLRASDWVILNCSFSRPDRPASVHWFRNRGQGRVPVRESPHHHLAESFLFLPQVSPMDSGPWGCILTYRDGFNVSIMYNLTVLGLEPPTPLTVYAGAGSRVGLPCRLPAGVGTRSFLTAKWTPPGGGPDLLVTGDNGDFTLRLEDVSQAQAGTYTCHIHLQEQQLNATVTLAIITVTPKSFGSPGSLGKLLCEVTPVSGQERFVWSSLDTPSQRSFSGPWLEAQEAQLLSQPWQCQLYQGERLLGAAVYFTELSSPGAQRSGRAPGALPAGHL
human LAG-3 overexpressed on HEK293 cells (human), sequence (P18627 23-525): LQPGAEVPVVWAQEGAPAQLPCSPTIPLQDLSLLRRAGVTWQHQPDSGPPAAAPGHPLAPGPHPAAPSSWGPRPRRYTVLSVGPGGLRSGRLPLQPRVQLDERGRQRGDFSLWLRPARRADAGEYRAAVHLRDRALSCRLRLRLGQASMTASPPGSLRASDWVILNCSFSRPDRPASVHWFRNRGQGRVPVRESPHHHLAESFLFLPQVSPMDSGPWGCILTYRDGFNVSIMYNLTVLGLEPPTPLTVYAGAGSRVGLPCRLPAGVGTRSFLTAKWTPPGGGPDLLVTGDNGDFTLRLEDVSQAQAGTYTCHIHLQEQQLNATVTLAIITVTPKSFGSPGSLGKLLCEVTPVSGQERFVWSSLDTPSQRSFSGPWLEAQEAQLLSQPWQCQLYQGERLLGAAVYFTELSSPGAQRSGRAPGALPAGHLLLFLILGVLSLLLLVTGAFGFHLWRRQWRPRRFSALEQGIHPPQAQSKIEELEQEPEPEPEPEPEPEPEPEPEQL
rhLAG3 protein (huFc) (human), sequence (P18627 23-450 limits assumed): as the sequence (P18627 23-450 limits assumed) above
LAG-3 on activated human CD4+ T cells (human), sequence (P18627 23-525): as the sequence (P18627 23-525) above

- koff (human LAG-3-His (human) [1]): 0.00101 s⁻¹
- kon (human LAG-3-His (human) [1]): 112000 M⁻¹ s⁻¹
- Kd (human LAG-3-His (human) [2]): 9.02 nM
- EC50 [3]: 2.59 nM
- EC50 [4]: 0.036 nM
- IC50 [5]: 5.14 nM
- EC50 [6]: 3.34 nM
Substance: 25F7 (antibody)
